According to patent US6624144B1, “Matrix metalloproteinase inhibitors and down-regulators” (CTT Cancer Targeting Technologies Oy, priority 1998, dated 2003):
Bridge positions count the residues as written; N and C are the ends. Ends that are not written are not given here. Peptide text beside a SMILES is read from it.

How the values were obtained:
[1] = target: T1, proMMP-2 (Homo sapiens, UniProt P08253); assay: β-casein degradation by proMMP-2 not preactivated with APMA; assay type: biochemical
T1 construct: endogenous in cells; host or cells: human gingival fibroblasts (serum-free culture medium)
T1 sequence (P08253 30-660 limits assumed): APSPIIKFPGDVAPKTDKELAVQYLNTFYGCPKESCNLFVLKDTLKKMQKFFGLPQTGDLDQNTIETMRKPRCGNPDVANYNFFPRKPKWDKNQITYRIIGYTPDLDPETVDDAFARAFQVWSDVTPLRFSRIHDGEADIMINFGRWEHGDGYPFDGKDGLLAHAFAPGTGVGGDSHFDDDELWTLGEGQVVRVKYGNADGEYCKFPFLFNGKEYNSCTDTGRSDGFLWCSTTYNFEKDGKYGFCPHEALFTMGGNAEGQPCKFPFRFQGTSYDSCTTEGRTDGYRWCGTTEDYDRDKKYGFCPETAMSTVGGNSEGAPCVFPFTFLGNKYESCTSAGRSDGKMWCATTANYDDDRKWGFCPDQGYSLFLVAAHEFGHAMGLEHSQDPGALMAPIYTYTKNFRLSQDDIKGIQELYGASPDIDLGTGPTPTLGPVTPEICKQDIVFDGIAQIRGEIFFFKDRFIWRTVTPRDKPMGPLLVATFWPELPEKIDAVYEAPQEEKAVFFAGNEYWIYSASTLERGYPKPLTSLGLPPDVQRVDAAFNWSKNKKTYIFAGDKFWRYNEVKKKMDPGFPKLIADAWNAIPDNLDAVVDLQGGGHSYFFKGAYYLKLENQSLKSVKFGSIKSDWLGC
Protocol: (§1) After 1 h pretreatment with the peptides, APMA-activated MMP-2 (A, C) or proMMP-2 (B, D) was incubated with the casein for 2 h. 52 μM β-casein was used as substrate for MMPs. Shown is Coomassie Blue-staining of the 21 kD β-casein (lane 1) and its fragments (lanes 2-9) resolved by SDS-PAGE (A, B); CTTHWGFTLC(SEQ ID NO:3) was used at the concentrations of (2) 0 μg/ml, (3) 75, (4) 50, (5) 25, (6) 10, (7) 5, (8) 1, and (9) 0.5 μg/ml in the lanes 2-9, respectively. (C, D); the concentrations of CRRHWGFEFC(SEQ ID. NO:2) were 0, 250, 100, 50, 25, 10, 1, and 0.5 μg/ml, respectively.
(§2) For the gelatin and casein degradation assays, purified MMP-2 and MMP-9 (50-100 ng) were first incubated for 60 min with various concentrations of the peptide inhibitors, after which a 21 kDa β-casein (52 μM) or [^125I]-gelatin substrate was added. After incubation for 2 h at 22 ° C., degradation of the casein was analyzed by SDS gel electrophoresis. The degradation of [^125I]-gelatin was determined by counting radioactivity in the supernatant after precipitation of undegraded gelatin with 20% trichloroacetic acid.
(§3) We also used β-casein as a substrate for the gelatinases and analyzed the degradation products by SDS gel electrophoresis.

[2] = target: T2, MMP-2 (Homo sapiens, UniProt P08253); assay: β-casein degradation by MMP-2 (SDS gel); assay type: biochemical; conditions: APMA-activated MMP-2, β-casein
T2 construct: endogenous in cells; host or cells: human gingival fibroblasts (serum-free culture medium)
T2 sequence (P08253 110-660): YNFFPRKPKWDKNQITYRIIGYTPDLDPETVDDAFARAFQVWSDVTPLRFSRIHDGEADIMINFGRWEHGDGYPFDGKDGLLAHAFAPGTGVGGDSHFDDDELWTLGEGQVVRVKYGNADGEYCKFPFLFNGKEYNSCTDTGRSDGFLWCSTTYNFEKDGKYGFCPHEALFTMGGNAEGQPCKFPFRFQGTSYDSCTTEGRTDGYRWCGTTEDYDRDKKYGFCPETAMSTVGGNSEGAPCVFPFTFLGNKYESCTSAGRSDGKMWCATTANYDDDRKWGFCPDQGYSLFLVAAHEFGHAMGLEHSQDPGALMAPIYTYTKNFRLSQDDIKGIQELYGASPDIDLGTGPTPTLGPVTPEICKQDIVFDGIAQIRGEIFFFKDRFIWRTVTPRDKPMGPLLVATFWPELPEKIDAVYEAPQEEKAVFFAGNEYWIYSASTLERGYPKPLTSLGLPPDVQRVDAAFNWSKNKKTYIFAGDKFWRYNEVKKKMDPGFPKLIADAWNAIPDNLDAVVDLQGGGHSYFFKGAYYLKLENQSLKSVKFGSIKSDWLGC
Protocol: as §1, §2, §3

[3] = target: T3, proMMP-9 (Homo sapiens, UniProt P14780); assay: [125I]-gelatin degradation by proMMP-9 (autoactivating); assay type: biochemical
T3 construct: from tissue; host or cells: human neutrophils
Protocol: (§4) ProMMP-9 was purified from human neutrophils and activated with aminophenyl mercuric acetate (APMA) essentially as described by Hibbs et al. (1985). For the selection of MMP-9 binding phage, APMA-activated MMP-9 was coated on microtiter wells overnight at 4° C. using a concentration of 1 μg/ml, after which the […] were saturated with 5 % bovine serum albumin. In the first panning, the library was incubated overnight at 4° C. in 50 mM Tris-HCl/0.1 M NaCl buffer (pH 7.5) (TBS) containing 1% bovine serum albumin, and after extensive washing the bound phage were eluted with low pH buffer. In the subsequent pannings, the amplified phage were allowed to bind for 1 h at 22° C. […] The bound phage were quantitated by adding 50 ng per well of anti-M13 antibody (Pharmacia, Uppsala, Sweden) labeled with an Europium-chelate (Wallac Ltd., Turku, Finland). After incubation for 45 min followed by washing, the fluorescence was measured with 1230 Arcus fluorometer (Wallac Ltd., Turku, Finland).
as §2, with “The degradation of [^125I]-gelatin was determined by counting radioactivity in the supernatant after precipitation of undegraded gelatin with 20% trichloroacetic acid.” left out

[4] = target: T4, APMA-activated MMP-9 (Homo sapiens, UniProt P14780); assay: [125I]-gelatin degradation by APMA-activated MMP-9; assay type: biochemical
T4 construct: from tissue; host or cells: human neutrophils
Protocol: as §4
as §2, with “The degradation of [^125I]-gelatin was determined by counting radioactivity in the supernatant after precipitation of undegraded gelatin with 20% trichloroacetic acid.” left out

[5] = Toxicity when injected into animals; conditions: in vivo
[6] = Solubility in aqueous buffers
[7] = tested on: HT1080 fibrosarcoma cells; assay: Transwell random migration of HT1080 cells; assay type: cell-based; conditions: 500 μg/ml, control peptides
Protocol: The endothelial cell line HUVEC (human umbilical vein endothelial cells, obtained from the ATCC, Rockville, Md.) was grown in RPMI 1640 medium containing penicillin (100 units/ml), streptomycin (100 μg/ml), 10 mM HEPES, 30 μg/ml endothelial cell growth supplement (Biomedical Technologies, Stoughton, Mass.), and 20% fetal calf serum. The HT1080 fibrosarcoma cells (ATCC, Rockville, Md.), C8161 melanoma cells and Eahy926 cells (derivative of HUVEC) were cultured in Dulbecco's modified Eagle's medium containing the antibiotics, 10% fetal calf serum, and hypoxanthine/aminopterin/thymidine additive with the Eahy926 cells. Cultures of cells were harvested with trypsin-EDTA (endothelial cells) or EDTA alone (other cells), washed, and resuspended in the full serum-containing media as indicated above.
Random cell migration was studied using […] pore size and 6.5 mm diameter Transwell inserts (Costar, Cambridge, Mass.) that were equilibrated in the serum-containing medium for 2 h before use. Tumor cell invasion was studied using 6.4 mm diameter Boyden chambers precoated with Matrigel (Becton Dickinson, Bedford, MA) and equilibrated in the serum-containing medium. […] Cells were removed from the upper surface of the membrane with a cotton swab, and the cells migrated on the undersite of the membrane were counted microscopically, or alternatively quantitated by scanning.

[8] = target: T1, proMMP-2; assay: [125I]-gelatin degradation by proMMP-2; assay type: biochemical; conditions: 10 μg/ml
Protocol: as §2
(§5) proMMP-2 was purified from serum-free culture medium of human gingival fibroblasts.

[9] = target: T5, APMA-activated MMP-2 (Homo sapiens, UniProt P08253); assay: [125I]-gelatin degradation by APMA-activated MMP-2; assay type: biochemical; conditions: 10 μg/ml
T5 construct: endogenous in cells; host or cells: human gingival fibroblasts (serum-free culture medium)
T5 sequence (P08253 110-660): T2 sequence (P08253 110-660)
Protocol: as §2, §5

[10] = target: T6, proMMP-9 (human, UniProt P14780 20-707); assay: phage binding (attachment) assay
T6 construct: also called 92 kDa proMMP-9

[11] = target: T7, proMMP-2 (human, UniProt P08253 30-660); assay: cell-based or functional assay
T7 sequence (looked up): T1 sequence (P08253 30-660 limits assumed)

[12] = target: APMA-activated MMP-9 (human, UniProt P14780 94-707); assay: cell-based or functional assay
[13] = target: T8, APMA-activated MMP-2 (human, UniProt P08253 30-660); assay: cell-based or functional assay
T8 sequence (looked up): T1 sequence (P08253 30-660 limits assumed)

T4 sequence (P14780 107-707 limits assumed): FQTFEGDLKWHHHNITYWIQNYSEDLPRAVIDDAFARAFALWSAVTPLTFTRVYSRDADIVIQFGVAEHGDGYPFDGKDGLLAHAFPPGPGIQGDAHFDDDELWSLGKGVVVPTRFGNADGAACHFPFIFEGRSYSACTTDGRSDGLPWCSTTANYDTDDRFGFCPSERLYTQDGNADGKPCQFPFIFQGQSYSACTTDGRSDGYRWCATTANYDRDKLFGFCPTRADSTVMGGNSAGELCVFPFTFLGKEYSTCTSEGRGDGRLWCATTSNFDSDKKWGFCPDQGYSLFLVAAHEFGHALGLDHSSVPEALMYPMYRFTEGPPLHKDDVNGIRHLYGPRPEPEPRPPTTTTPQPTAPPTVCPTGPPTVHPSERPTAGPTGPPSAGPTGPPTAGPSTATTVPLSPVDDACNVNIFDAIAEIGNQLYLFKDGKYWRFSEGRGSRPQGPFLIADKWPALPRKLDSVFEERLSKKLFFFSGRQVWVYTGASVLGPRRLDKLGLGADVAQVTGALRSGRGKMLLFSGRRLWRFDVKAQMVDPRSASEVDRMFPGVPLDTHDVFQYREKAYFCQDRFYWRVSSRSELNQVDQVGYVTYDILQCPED
T3 sequence (P14780 20-707 limits assumed): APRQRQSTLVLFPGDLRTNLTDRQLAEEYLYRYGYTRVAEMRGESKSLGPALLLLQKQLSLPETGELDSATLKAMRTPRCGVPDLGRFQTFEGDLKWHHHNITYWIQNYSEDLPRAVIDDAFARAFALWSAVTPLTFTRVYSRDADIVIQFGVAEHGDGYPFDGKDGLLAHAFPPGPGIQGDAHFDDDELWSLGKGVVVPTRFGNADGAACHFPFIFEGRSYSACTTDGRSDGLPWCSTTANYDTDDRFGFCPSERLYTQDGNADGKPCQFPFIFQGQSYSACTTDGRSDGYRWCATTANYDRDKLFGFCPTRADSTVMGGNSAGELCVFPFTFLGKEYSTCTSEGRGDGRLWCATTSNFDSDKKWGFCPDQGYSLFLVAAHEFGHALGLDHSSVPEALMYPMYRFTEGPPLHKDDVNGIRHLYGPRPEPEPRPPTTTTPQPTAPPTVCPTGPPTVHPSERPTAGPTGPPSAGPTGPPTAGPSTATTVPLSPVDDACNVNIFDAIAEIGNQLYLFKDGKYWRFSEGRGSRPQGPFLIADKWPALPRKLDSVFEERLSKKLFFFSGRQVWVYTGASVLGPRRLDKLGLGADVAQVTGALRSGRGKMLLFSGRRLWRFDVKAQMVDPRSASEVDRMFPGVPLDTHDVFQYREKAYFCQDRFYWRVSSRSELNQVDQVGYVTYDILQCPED
T6 sequence (P14780 20-707): as the sequence (P14780 20-707 limits assumed) above

N=C(N)NCCC[C@@H]1NC(=O)[C@H](CCCNC(=N)N)NC(=O)[C@@H](N)CSSC[C@@H](C(=O)O)NC(=O)[C@H](Cc2ccccc2)NC(=O)[C@H](CCC(=O)O)NC(=O)[C@H](Cc2ccccc2)NC(=O)CNC(=O)[C@H](Cc2c[nH]c3ccccc23)NC(=O)[C@H](Cc2c[nH]cn2)NC1=O [CRRHWGFEFC] (H-CRRHWGFEFC-OH; disulfide 1-10; N-terminus and C-terminus assumed)
IC50 [1]: 18.7 µM
IC50 [2]: ~18.7 µM
inhibition of proMMP-9 gelatinolytic activity ([3]; peptide 10 μg/ml): more than 50%
IC50 ([4]; APMA-activated MMP-9, read-out: half-maximal inhibitory value (IC50), [125I]-gelatin degradation (converted)): ~7.47 µM

CC(C)C[C@@H]1NC(=O)[C@H]([C@@H](C)O)NC(=O)[C@H](Cc2ccccc2)NC(=O)CNC(=O)[C@H](Cc2c[nH]c3ccccc23)NC(=O)[C@H](Cc2c[nH]cn2)NC(=O)[C@H]([C@@H](C)O)NC(=O)[C@H]([C@@H](C)O)NC(=O)[C@@H](N)CSSC[C@@H](C(=O)O)NC1=O [CTTHWGFTLC] (H-CTTHWGFTLC-OH; disulfide 1-10; N-terminus and C-terminus assumed)
IC50 [1]: 4.29 µM
IC50 [2]: ~4.29 µM
toxicity when injected into animals [5]: no toxicity

CQWNNDNPLFKEAEEEVMNPKFAES
solubility [6]: highly soluble

EVGTGSCNLECVSTNPLSGTEQ (Targeted to Homo sapiens)
effect on cell migration [7]: None of these control peptides affected cell migration
solubility [6]: highly soluble

RAVRALWRC [RAVRALWRC]
solubility [6]: highly soluble

linear CRRHWGFEFC: linearized version of CRRHWGFEFC prepared by reducing and alkylating the cysteine residues (also: cysteines reduced and alkylated, alkylating agent not given here)
gelatinolysis by proMMP-2 [8]: virtually inactive
gelatinolysis by APMA-activated MMP-2 [9]: virtually inactive
inhibitory activity against proMMP-9 gelatinolysis ([3]; 10 μg/ml (FIG. 2)): loss of inhibitory activity
inhibitory activity against APMA-activated MMP-9 gelatinolysis ([4]; 10 μg/ml (FIG. 2)): loss of inhibitory activity

B1: phage clone displaying CRRHWGFEFC (from the CX9 library) (peptide)
peptide: CRRHWGFEFC
notes: not shown: phage coat protein to which the peptide is fused
binding result [10]: no binding

CRRHWGFEFC (disulfide 1-10 (inferred)) [cyclic CRRHWGFEFC synthetic peptide]
IC50, β-casein degradation (SDS-PAGE) [11]: 25 mg/L
IC50, [125I]-gelatin degradation assay [12]: ~10 mg/L
IC50, β-casein degradation (SDS-PAGE) [13]: ~25 mg/L

B2: phage clone displaying CSLHWGFWWC (from the CX9 library) (peptide)
peptide: CSLHWGFWWC
notes: as for B1
binding result [10]: no binding

CTTHWGFTLC (disulfide 1-10 (inferred)) [cyclic CTTHWGFTLC synthetic peptide]
IC50, β-casein degradation (SDS-PAGE) [11]: 5 mg/L
IC50, β-casein degradation (SDS-PAGE) [13]: ~5 mg/L
